The labels stand for the following.
T1: human CD276 protein (human, UniProt Q5ZPR3 29-534)
T1 sequence (looked up): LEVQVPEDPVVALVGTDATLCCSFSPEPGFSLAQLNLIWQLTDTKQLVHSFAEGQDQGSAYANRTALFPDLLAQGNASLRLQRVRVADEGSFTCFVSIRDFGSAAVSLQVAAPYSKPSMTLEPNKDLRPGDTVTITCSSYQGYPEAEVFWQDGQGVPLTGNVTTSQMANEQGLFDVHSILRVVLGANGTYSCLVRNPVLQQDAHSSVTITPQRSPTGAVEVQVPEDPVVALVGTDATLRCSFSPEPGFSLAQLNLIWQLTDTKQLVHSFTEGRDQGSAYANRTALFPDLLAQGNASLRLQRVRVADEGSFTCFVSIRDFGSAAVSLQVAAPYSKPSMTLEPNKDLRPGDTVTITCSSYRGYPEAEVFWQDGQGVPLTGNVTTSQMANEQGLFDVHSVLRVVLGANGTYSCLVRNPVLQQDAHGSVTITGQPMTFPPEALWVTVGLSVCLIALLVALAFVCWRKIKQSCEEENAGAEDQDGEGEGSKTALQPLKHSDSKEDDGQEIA

T2: HUMAN B7H3 (Biacore analyte) (human, UniProt Q5ZPR3 29-461, limits assumed)
T2 construct: also called hB7H3
T2 sequence (looked up): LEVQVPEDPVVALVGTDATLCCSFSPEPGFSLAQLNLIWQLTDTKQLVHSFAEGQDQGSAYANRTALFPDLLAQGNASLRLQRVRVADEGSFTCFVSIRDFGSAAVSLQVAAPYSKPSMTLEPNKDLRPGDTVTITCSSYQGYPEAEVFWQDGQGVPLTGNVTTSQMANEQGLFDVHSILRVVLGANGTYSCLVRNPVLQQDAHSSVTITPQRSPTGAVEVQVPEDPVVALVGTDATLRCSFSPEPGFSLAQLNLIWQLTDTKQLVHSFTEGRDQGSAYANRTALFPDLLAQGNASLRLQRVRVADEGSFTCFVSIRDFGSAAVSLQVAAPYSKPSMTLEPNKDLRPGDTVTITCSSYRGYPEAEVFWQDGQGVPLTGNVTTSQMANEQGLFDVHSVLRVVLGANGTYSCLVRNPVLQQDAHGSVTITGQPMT

B1: 15-C8-B5-G7 (human IgG1 chimeric antibody) (antibody, V domains shown)
VH: QVQLQQPGAELVKPGASVKLSCKASDYTFTSHWMHWVKQRPGQGLEWIGMIHPNSGTTHYNENFKNKATLTVDNSSSTAYMQLSSLTSEDSAVYYCAWGSSNSYFYAMAYWGQGTSVTVSS
VL: QAVVTQESALTTSPGETVTLTCRSSTGAVTTSNYANWVQEKPAHLFTGLIGGTNNRAPGVPARFSGSLIGDKAALTITGAQTEDEAIYFCALWFSNHLVFGGGTKLTVL
notes: human IgG1 chimeric antibody of the mouse clone
B2: 25-D3-G4-C6 (human IgG1 chimeric antibody) (antibody, V domains shown)
VH: EIQLQQTGPELVKPGASVKISCKASGYSFTDYIILWVKQSHGMSLEWIGNINPYYNSTYYNLKFKGKATLTVDKSSSTAYMQLDSLTSEDSAVYYCARDSFDWYFGVWGAGTTVTVSS
VL: DVVMTQTPLSLPVSLGDQASISCRSSQSLVHSNGNTYLHWYLQKPGQSPKLLIYKVSNRFSGVPDRFSGSGSGTDFTLKISRVETEDLGIYFCSQSTHVPPLTFGAGTKLELK
notes: as for B1
B3: MGC018 (antibody, V domains shown)
VH: EVQLVESGGGLVKPGGSLRLSCAASGFTFSSYGMSWVRQAPGKGLEWVATINSGGSNTYYPDSLKGRFTISRDNAKNSLYLQMNSLRAEDTAVYYCARHDGGAMDYWGQGTTVTVSS
VL: DIQMTQSPSSLSASVGDRVTITCRASESIYSYLAWYQQKPGKAPKLLVYNTKTLPEGVPSRFSGSGSGTDFTLTISSLQPEDFATYYCQHHYGTPPWTFGQGTRLEIKR
B4: 7-E1-F8-F6 (human IgG1 chimeric antibody) (antibody, V domains shown)
VH: QVQLQQSGPELVKPGASVQMSCKASGYTFTDYVISWVNQRTGQGLEWIGEIYPRSGNTYYNEKFKGKATLTADKSSNTAYMQLSSLTSEDSAVYFCARFDIAYSFDYWGQGTTLTVSS
VL: DVVMTQTPLSLPVSLGDQASISCRSTQSLVHSNGVTYLHWYLQKPGQSPKLLIYKVSNRFSGVPDRFSGSGSGTDFTLKISRVEAEDLGVYFCSQGTHVPWTFGGGTKLEIK
notes: as for B1
B5: 25-C8-D7-C5 (human IgG1 chimeric antibody) (antibody, V domains shown)
VH: EVQLQESGGGLVKPGGSLKFSCAASGFTFSTYAMSWVRQTPEKRLEWVATISGGGIDTYYPDSVKGRFTISRDNAKNTLYLQMNSLRSEDTAMYYCARQGSKGWGAMDYWGQGTSVTVSS
VL: QIVLTQSPAIMSASPGEKVTMTCRASSSVSFMHWYQQKSGTSPKRWIYETSKLASGVPDRFSGSGSGTSYSLTISSMEAEDAATYYCQQWSSNPLTFGAGTKLELK
notes: as for B1
B6: 20-A2-D10-G8 (human IgG1 chimeric antibody) (antibody, V domains shown)
VH: QVQLQQSGPELVRPGVSVKISCKGSGYTFTDYTMHWVKESHAQSLEWIGVISTYYGNTNYNQNFKGKATLTVDKSSSTAYMELAGLTSEDSAIYYCARASYGSGYGPYYWYFDVWGAGTTVTVSS
VL: DIQMTQSPASLFASVGETVTITCRASEKIYSYLAWYFQKQGKSPQFLVYNANALAEGVPSRFSGSGSGTQFSLKIKSLQPEDFGTYYCQHHYGSPVTFGAGSKLELK
notes: as for B1
B7: 22-E11-C3-F2 (human IgG1 chimeric antibody) (antibody, V domains shown)
VH: QIQLVQSGPELKRPGETVKISCKASGYSFTNYGMNWVKQAPGKGLKWMGWINPYTGEPTYADDFKGRFAMSLETSASAAYLQINNLKNEDMATYFCGRDDGYHYTMNYWGQGTSVTVSS
VL: B4 VL with T7P, T26S, V30I, V35D, N58I, G96S, H98Y
notes: as for B1
B8: 8-C3-E3-F3 (human IgG1 chimeric antibody) (antibody, V domains shown)
VH: EVQLVESGGGLVQPGGSLKLSCAASGFTFSNYGLSWVRLTPDKRLEVVATIGSYGGNTYYPDSVKGRFTISRDNAKNTLYLQMSSLKSEDTAIYYCARDIYYGNSEAWFAYWGQGTLVTVSA
VL: DIVMTQAAFSNPVTLGTSASISCRSSKSLLHSNGITYLYWYLQKPGQSPQLLIYQMSNLASGVPDRFSSSGSETDFTLRISRVEAEDVGVYYCAQNLELPWTFGGGTKLEIK
notes: as for B1
B9: 10-B9-D10-A12 (human IgG1 chimeric antibody) (antibody, V domains shown)
VH: B6 VH with Q1E, Q6E, E39L, Q43K, N63K, G85R
VL: B6 VL with K76N, S94T
notes: as for B1
B10: 20-C5-D7-D3 (human IgG1 chimeric antibody) (antibody, V domains shown)
VH: EVQLVESGGDLVKPGGSLKLSCAASGFTFRSYGMSWVRQTPDKRLEWVATISGGGNYTYYPDSVKGRFTISRDNAKNTLYLQMSSLKSEDTAMYYCARHEGLPLDYWGQGTTLTVSS
VL: DIQMTQSPASLSASVGETVTITCRASENIYSYLAWYQQKQGKSPQLLVYNAKTLAEGVPSRFSGSGSGTQFSLKINSLQPEDFGNFYCQHHYGTPTWTFGGGTKLEIK
notes: as for B1

Where a chain is given by its changes, count along the chain named.

One assay concerns the target T1, human CD276 protein. The assay is described as follows: cell-based or functional assay.
With B1, the “EC50 of antibody induced CDC effect” value came to 7.54 nM and the “Top cytotoxicity (%), CDC” value turned out to be 86.1%.

Consider B2, for which the “EC50 of antibody induced CDC effect” value was found to be 2.41 nM and the “Top cytotoxicity (%), CDC” value was 89.7%.

In the case of B3, the “EC50 of antibody induced CDC effect” value came out at 1.67 nM and the “Top cytotoxicity (%), CDC” value worked out at 93.3%.

For the molecule B4, the “EC50 of antibody induced CDC effect” value is 1.69 nM and the “Top cytotoxicity (%), CDC” value was 91.9%.

For B5, the “EC50 of antibody induced CDC effect” value is 2.42 nM and the “Top cytotoxicity (%), CDC” value turned out to be 91.4%.

For the molecule B6, the “EC50 of antibody induced CDC effect” value is 1.92 nM and the “Top cytotoxicity (%), CDC” value turned out to be 85.1%.

In the next assay the target is T1, human CD276 protein. The assay is described as follows: FACS on SKOV3 cells. The method in brief:
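Human IgG1 chimeric antibodies were tested for binding to trypsin-detached SKOV3 ovarian cancer cells by flow cytometry, with cells washed in FACS buffer and kept in the dark before acquisition. Titration read-out was MFI plotted against antibody concentration (nM).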
As to B1, it took 0.293 µg/mL to reach a half-maximal effect (EC50) and the “MFI (Max)” value worked out at 2140.

Regarding B2, a half-maximal effect (EC50) was put at 1.27 µg/mL and the “MFI (Max)” value stood at 3450.

With B3, the EC50 was 0.385 µg/mL and the “MFI (Max)” value amounted to 2540.

B4: the EC50 worked out at 0.982 µg/mL and the “MFI (Max)” value turned out to be 3380.

As to B7, the EC50 came out at 0.523 µg/mL and the “MFI (Max)” value turned out to be 5540.

Take B8: the EC50 amounted to 0.643 µg/mL and the “MFI (Max)” value was 2880.

As for B5, the EC50 came out at 2.03 µg/mL and the “MFI (Max)” value was 3480.

Turning to B6, the EC50 was 0.791 µg/mL and the “MFI (Max)” value was determined as 3110.

Take B9: a half-maximal response (EC50) required 2.08 µg/mL and the “MFI (Max)” value was 3880.

Take B10: the EC50 turned out to be 0.941 µg/mL and the “MFI (Max)” value came out at 2310.

For a further assay, the target named is T1, human CD276 protein. The experiment in a line: cell-based or functional assay. This is another data set of the same source.
On to B1, for which the “EC50 of antibody induced ADCC effect on SKOV3” value (“EC50 … on SKOV3” below) came to 0.697 µg/mL.

Take B2: the “EC50 … on SKOV3” value amounted to 0.0372 µg/mL.

Regarding B4, the “EC50 … on SKOV3” value came out at 0.0177 µg/mL.

Take B7: the “EC50 … on SKOV3” value was 0.0179 µg/mL.

For the molecule B8, the “EC50 … on SKOV3” value worked out at 0.111 µg/mL.

Consider B5, for which the “EC50 … on SKOV3” value is 0.123 µg/mL.

Turning to B6, the “EC50 … on SKOV3” value amounted to 0.263 µg/mL.

In the case of B9, the “EC50 … on SKOV3” value worked out at 0.259 µg/mL.

For the molecule B10, the “EC50 … on SKOV3” value was found to be 0.069 µg/mL.

In a further assay the target is T1, human CD276 protein. The experiment in a line: cell-based or functional assay. This is another data set of the same source.
With B1, the “IC50 of indirect ADC cytotoxicity on SKOV3” value (“IC50” for short) was found to be 0.008 nM.

As for B2, the “IC50” value stood at 0.023 nM.

As for B3, the “IC50” value was 0.013 nM.

Consider B4, for which the “IC50” value was determined as 0.028 nM.

As to B7, the “IC50” value was 0.016 nM.

B8: the “IC50” value was 0.012 nM.

For B5, the “IC50” value is 0.018 nM.

For B6, the “IC50” value worked out at 0.007 nM.

With B9, the “IC50” value was found to be 0.021 nM.

Turning to B10, the “IC50” value stood at 0.007 nM.

Another assay addresses T2, HUMAN B7H3 (Biacore analyte). The assay is described as follows: SPR, Biacore 8K, antibody captured, B7H3 as analyte, 1:1 binding.
Molecule B1 came in with a Kd of 0.399 nM, a koff of 0.000196 s⁻¹ and a kon of 492000 M⁻¹ s⁻¹.

B2 yielded a Kd of 2.31 nM, an off-rate constant (koff) of 0.00025 s⁻¹ and a kon of 108000 M⁻¹ s⁻¹.

The molecule B3 yielded a Kd of 0.459 nM, a koff of 0.000408 s⁻¹ and an on-rate constant (kon) of 889000 M⁻¹ s⁻¹.

In turn, B4 registered a Kd of 0.855 nM, a koff of 0.000222 s⁻¹ and a kon of 260000 M⁻¹ s⁻¹.

B8 displayed a Kd of 0.444 nM, a koff of 0.00044 s⁻¹ and a kon of 990000 M⁻¹ s⁻¹.

B5 yielded a Kd of 1.2 nM, a koff of 0.000243 s⁻¹ and a kon of 203000 M⁻¹ s⁻¹.

Consider B6, for which the Kd came to 0.555 nM, the koff is 0.000282 s⁻¹ and the kon was found to be 508000 M⁻¹ s⁻¹.

Consider B9, for which the Kd came out at 0.752 nM, the koff came to 0.000282 s⁻¹ and the kon came out at 375000 M⁻¹ s⁻¹.

B10 had a Kd of 0.644 nM, a koff of 0.000416 s⁻¹ and a kon of 645000 M⁻¹ s⁻¹.

The values above are taken from patent US20240400689A1 (ANTENGENE BIOLOGICS, published 2024).
